± gives the uncertainty stated by the source.

This series can be described thus: amyloid nucleation score (Sup35N fusion, yeast selection) (log enrichment); library NNK1; higher = more nucleation; inactive = no reads after selection. In a few lines:
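Psi-negative yeast expressed Sup35N fused to peptides of 20 random codons. They were induced 24 hours with 100 μM copper sulfate, grown 7 days at 30°C without adenine and uracil, and their plasmid inserts from input and output were Illumina-sequenced. The nucleation score is the DiMSum log enrichment of output over input reads, centred on the mode score of non-aggregating sequences. Sequences with under 100 input reads were excluded.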

In turn, SGPHGRFDARSMLAIL returned an amyloid nucleation score of -0.773 ± 0.64.
Next, ENQPVPLQDLKGAV: -0.352 ± 1.2; SPFASVEEFELL: 0.124 ± 0.33; FTVLSVVSALQGGRHYPLMG: 0.357 ± 0.33.
The value for SKFSISRTHNSHLSYSGLGG was 0.056 ± 0.5; that for YDLTSFGFSVIVCSDDTRSG was -0.043 ± 0.75; that for SHGNLYGHHERLNSTRNPES was -1.14 ± 0.9.
The value for AEYNVGLLSCSNDSLWDQWS was “inactive”.
With AAWDLVVGQ, the amyloid nucleation score is -0.473 ± 0.32.
Take VRCLLRYLLLESPQFINV: the amyloid nucleation score was determined as 1.7 ± 0.36.
The value for THSIF was “inactive”; that for LVIHCDQTHIKVQRDVPRRW was 2.98 ± 0.15; that for IYSNEELIMRVVNQY was 0.856 ± 0.58.
The value for DQVTYRPWLRELRRQAMCLQ was 0.027 ± 1.7; that for TWSYGLASDEVGPDAVVIVY was 0.495 ± 1; that for WRILYRC was 0.41 ± 0.34.
Next, WCTTVRIRLYGSSIWRLFGA: 0.76 ± 0.45.
YLINLRFCEREAGFNFLLGR displayed an amyloid nucleation score of -1.12 ± 2.7.
The value for GEFVWKEASATCCSWGKLRR was 0.425 ± 0.72.
The value for TGLLLLIRNICYCLNLQLWG was 0.271 ± 0.53.
Next, GHTVVSSWALNFEYGFQLGY: 0.05 ± 0.5; YFSVGSCNRYLHWTVQ: 5.06 ± 0.075.
RFYTYQNDVAGSDDKFSMLC showed an amyloid nucleation score of -0.232 ± 0.24.
For VECVSVQRFGAQCLSCYPSW, the amyloid nucleation score is -0.07 ± 0.55.
Next, TYNEDEVPCLMLASDVRFSS: 0.372 ± 0.64; PFSDSVARSDGCGVQRV: -0.444 ± 1.2.
Substance TFRRFGYTELYCGENSLLEC returned an amyloid nucleation score of -0.036 ± 0.84.
WNSFTELRAHMLYHLKKIII yielded an amyloid nucleation score of 1.72 ± 0.22.
The value for DSVNRLLSCPINKMLWSNYS was 0.233 ± 0.22.
DLFYYLRRLITRTWFM registered an amyloid nucleation score of 1.05 ± 0.27.
Next, VSTIFHIGFVLKFRDYRESE: 2.93 ± 0.18; LLVESKAYGWHVMRGQTWTR: -0.045 ± 0.42.
The value for RSWVCSSGLMVLRWNGRSYF was “inactive”.
With LGSNNWVFGYGR, the amyloid nucleation score entry is “inactive”.
The value for RKRHSDNYRCEVNRS was -0.235 ± 0.52.
Next, CNLYFSYNCVFT: -0.592 ± 0.24; NIVNYFSCLKALNKFLHKMG: 0.609 ± 0.26.
Next, QGLAGHLSRRYFY: -1.96 ± 2.1; YHIRVAWQFVGADI: -0.535 ± 1; WQFYTVL: -0.246 ± 0.31.
HRTDYENFPSSKSRRMLVRV gave an amyloid nucleation score of 0.436 ± 1.2.
The substance MSSLQG gave an amyloid nucleation score of -0.246 ± 1.1.
Next, DCWSITILSVNRGSLFRLTF: “inactive”.
Next, FGSSPRSDVVKHQNINEEVI: 0.581 ± 0.61; LWFNSDLIE: -0.369 ± 0.35.
Next, YILGVRSSYSMFMESQCL: 0.543 ± 0.23.
Regarding CLKFLDLNIKIDPYQFSF, the amyloid nucleation score entry is “inactive”.
LAEHHWYWAEMIWSRGHEFT: the amyloid nucleation score came out at 0.158 ± 0.44.
For LYGFANYFRFMRYWTRNVVP, the amyloid nucleation score came to 0.124 ± 1.2.
The value for NDDVSVSVSWPDMEVRWK was -0.179 ± 0.29; that for EMAFISYH was 0.4 ± 1.1; that for NKDYMVVLTDFS was -0.326 ± 0.2.
Next, SNLLTCPKYFVVTFFCL: 0.211 ± 0.26; SALRTCKFN: 0.826 ± 0.56.
As to LCSIKNSLMECLWYDL, the amyloid nucleation score is -0.177 ± 0.33.
Substance VENTPSCSDISSDLMGREIH showed an amyloid nucleation score of -0.87 ± 0.35.
Next, TSGFKLGRSGGYVCRS: 1.41 ± 0.78; AYCVAHTYCMSGMRYIADWV: 0.421 ± 0.31.
Consider WAIFLVR, for which the amyloid nucleation score is -2.31 ± 2.4.
The value for GQSYRRNIMCTSFLWLGNRN was 1.05 ± 0.53.
The substance SQQVHISNVHVLYLRWWTGC registered an amyloid nucleation score of 0.696 ± 0.74.
The value for GVISAGYFAGYETKLLLKGD was 0.983 ± 0.97; that for ILGVFNTIVVFKR was 4.9 ± 0.066.
Next, QWVSMTEVYFVVNKRWMCSR: -1.39 ± 1.6; VDLILRRFEMRSDSLFGLWE: -0.481 ± 0.58.
The value for SVRGSYCYASLVCSDFL was -1.12 ± 0.84.
For EYFRSTCRRATLSDPSMMHH, the amyloid nucleation score stood at 0.185 ± 0.35.
The value for SGVSVVEGYHRSRVACRSVM was -0.158 ± 0.52; that for MGNHCLTR was 1.12 ± 0.58.
The substance VNDLSCIGVGGDAKDNREGN came in with an amyloid nucleation score of 1.34 ± 0.48.
The value for DGNNNKLVMVLWLSYADYRW was “inactive”.
Next, PMFSSGLT: 0.099 ± 0.42; KLQLVSLWQ: 2.77 ± 0.11; LQYSKGYDRVRDPILHTVN: 0.389 ± 0.37.
Next, CFVMLFDRYVNLLIGNQLWY: 0.145 ± 0.35.
LMVISYRCDATGRRRVSLD: the amyloid nucleation score is 0.867 ± 0.25.
The substance RGRPLLGRMRFSSAGRAAFW yielded an amyloid nucleation score of -0.418 ± 1.5.
The value for LRVYGGFLSMSCMRQRDGTV was 0.151 ± 0.39; that for CVRLHPSDWAFYRAPFNKHG was 0.659 ± 0.55; that for GSVLKLYRGITHSRNERRGP was -0.171 ± 1.1.
The value for NRYQRYVPTIEMEPNSSYGN was “inactive”; that for NWVLGVAYRRLRHKCSMYRV was 0.387 ± 0.67; that for FDLTLCICCLRSECYYITPR was 8.732 ± 0.049.
The value for FYGTLVCVRRYSVVLNSNLE was 0.751 ± 0.93; that for YLIYVMPADVMAYWYCFT was -0.379 ± 0.61.
Substance SCAAILEDVVHSAHILYLSH came in with an amyloid nucleation score of -0.92 ± 0.96.
Consider GIKFNWENLARVLESNVFF, for which the amyloid nucleation score is 1.53 ± 0.46.
The value for DSADMLILILYAAVLLYTIF was -0.278 ± 0.69.
The value for HILSHFVSCSRYL was -0.09 ± 1.4; that for CWFTAVLARPLWNSSVSSVA was -0.369 ± 0.34; that for VEPLCGTRFACRLNAFKTTG was -0.097 ± 0.39.
Next, TWIKILSGPLYKFCI: -0.2 ± 0.56; SCATVPCKM: 0.53 ± 0.63.
In the case of ALRRIGSFVVHLDIRAVSQT, the amyloid nucleation score is 1.09 ± 0.5.
Consider SELFWMVGMGSLSSRYNSPF, for which the amyloid nucleation score came out at 2.37 ± 0.087.
The value for QYFKNDVKYVPFG was -0.514 ± 1.1; that for AYYGDGFAKGTMLMTS was -0.35 ± 0.32; that for LRVKIHTIVIQWIANNGARL was 0.39 ± 0.74.
Next, GSLLLMGRTMDVYQNRHFFH: 0.651 ± 0.28.
Next, PTSSMI: 0.488 ± 1; ACFWYTL: 0.024 ± 0.47.
LPLICRSSGLLV returned an amyloid nucleation score of -0.405 ± 1.6.
The value for CVRNGLGCYSCTRTFFTVIV was -0.409 ± 0.94; that for ADYTQCRLYVM was -0.132 ± 0.21; that for SLRCQFTSLLSMVCGCSLYG was 0.807 ± 0.93.
The value for GLETNNLARLVCGSRCFLSD was -0.894 ± 2.4; that for GQQLCVIFYSTCDSYKMLSD was 3.26 ± 0.089.
The value for PRIRHHSLYCVVYWFIIDRT was “inactive”; that for RPCFGFLGYNNAV was 0.109 ± 1.4.
On to TLYPHTGEGGKRLDLGCLSR, for which the amyloid nucleation score turned out to be 1.39 ± 0.48.
The value for RGYLMHMTVAKILSVVKKRA was -2.16 ± 2.7; that for VFGSCWYLYFVYLPTNRFRM was -0.134 ± 0.3; that for SWNFTLLD was “inactive”.
The value for DDLWSCMFELDAYMSFYLKA was “inactive”; that for DHLVEQYDRGDAAFFRLVFV was “inactive”.
Next, TLGAYQSCRGNVIMGQGTFV: 0.266 ± 0.46.
As to ILCSLYYICT, the amyloid nucleation score was 2.74 ± 0.071.
Substance DLNRSALSRDDGNSVILKCG yielded an amyloid nucleation score of 0.653 ± 0.68.
Next, EYRTSSEQTANTFILKPRWA: 1.72 ± 0.4; CCSRGLKVPDANRASKSGCE: 1.08 ± 0.52; NGCLITSWDYCSCRAVYQLT: -0.602 ± 0.39.
The value for RYTFQFNYV was 0.224 ± 0.38; that for TYHVSEV was -0.175 ± 0.24.
Next, GSYGLDGILDQWTPLHSLGG: 0.64 ± 0.46.
In turn, VSGAKLAFN yielded an amyloid nucleation score of -0.46 ± 1.6.
Next, YNPIVWSTAY: “inactive”; RTIGFTEELP: -0.577 ± 0.96; ALNYSRGMTMVGVCLPHKLT: -0.147 ± 0.3.
Next, GTYFSGIVVVFLVGVLAR: -0.207 ± 0.49.
Next, YQCYSFRVNFGGCWLAQHLL: 4.64 ± 0.13; EYVACVIEDFSVLNVVRQVD: -0.33 ± 0.21.
Regarding SDQDTGLHTLPCHTRS, the amyloid nucleation score result was “inactive”.
The value for LVMGMHYSLVV was 0.125 ± 0.46; that for VYHIYDG was -0.662 ± 0.43.
Consider YLERIGATYMGG, for which the amyloid nucleation score was found to be 0.601 ± 0.4.
Next, HQVIQGVSYSTCG: 0.107 ± 0.38; TRQNMFGIHHPWYNRRIS: -0.458 ± 0.42; RNINLANHGCSSISLVYLPS: 2.8 ± 0.21.
The value for SVRANIA was 1.34 ± 0.38.

The values above are taken from the supplement of paper PMC12042874.
